The values below come from a protein production outcome set (Wang et al. 2014).

The data set is described as follows: label from the status in PepcDB records.
For the sequence “MSMVGAIILSIIIGIAAFFIHPLLYIGLALMGLIGWQRVRREREHFHTRVLRIRADYVVPFLPGLIAGSLLSLVTIVIGLTVSIDWLWLLLIVYLLTIVTMNIRWISPAYVGAFMIGVVLLAPFVTTGWPWFDERLQSASQIPVLVIMYLTVLLLSAEGMLIAKRGGSFSSPVVVRSKRGKWVGFHRVKRLWLLPVVLFIPEGAIPTFSFWPILTVAGVSLQPLVVPFLIGTDFKIWSSLPKVVSRKVGNQVLGLALTLALIVCITWYVPWLSVLFAIVAIVGREGIHLMAKIKDRSSTSLFTNQGTGCKVLGILPGSPAEKMGIKIGETILRVNGKMVNNEYSFYEALQENSAFCRLEVIDKAGEVRFAQGALYDGEHHQLGVLLVKEDRELQDSVI”, the protein production result is listed as “failed”.
Under “MSNAVSAENEGPGAIPGLLHLSGPCVYVAGSQGVSMTQTMPIGAVIAPVTPLQQNCTIVWCAKTLKAAVIDPGGEVDRLLKAIADKGLTLEKIWITHGHMDHAGGAAELKARTGVPIEGPHKDDQFWIDRIQDSGEMYGMPEARIFVTDRWLDDGDTVTLGETEFEVFHCPGHTPGHVVFFHRETKFAQVGDVLFQGSIGRTDFPMGNHQDLIDSITQKLWPLGEDVRFVPGHGPMSTFGAERRGNPFVGDRVVAAMKAQGAGFTIPKNNSPG” stands “failed”; under “MSNDQSAMNELHWLIDMVQTIEVGLVVLDRDYNIQLWNGFMENHSGVSPNSIKGQNLFSRFPDLPATWLKQKMESVFMLKNRAFISWEQRPYVFQFKNYRPITGRADFMYQNVTLLPLASLTGKITHISVIVYDVTDIAVNKLQLKAANEQLERLSQTDGLTQLHNRRHWQQCLEHEYDLYARYSGIASLVMIDIDHFKNINDTYGHLAGDKVIQHIAHILSHSLRETDCAGRYGGEEFAVVMPSTCGADALNFTERLREKIASSTVVYEGLKIKVTVSLGVCELGKHISSSSSWISCSDKALYEAKQKGRNCTVLHCAPTSAE”, “failed”; under “MSNEISLCMIVKNEEKYLFQCLDSVKDIVDEIIIVDTGSTDKTVEIAKKFGAEIHYFMWNNSFSDARNESLKYATKDWIFIMDGDDEFSKDDKEKFKELVKNNLKEDCLYYFETLSYCGEFVDSSNISVNLNPRLFKNNYGYKYEGIVHNQLINTEKEIKNVIYNIRIYHYGYLEDVSKKKNKRGRNIPLLKKQLKENPDDRFAHFNIGNEYYAIGDLQKALTHYCEAYKDFNPSSGFGFVLITRLIVTNFGIGKHEKAIEFADIGLEYYPNATDIYFLKALIYEATRRPTLAIKALKRCIEMGEPPSNLKLYYGTWSFKALYELVNIYMGLKDYEEAYKYCIETIKAKNDFVNPVYVIGHILKERKTPIEEFKVELEKLFSDYPKAYFFIANILYDEGYFNEALEYTDKCEKEGLNSDAILDLKLKAMIRAQKFNECAEANYFAKESVFYFNASMYKVLSLVLIGKFKEALKDLEIFKDGKLKRQDKKELEVYSQFVKLFMNEETKVLSEDKEDKEYTGFILDICDILLSNKLYDEFEKALNLFNLISDENVLLNLSKLYYKHGIESMAKKEAIRSIKEFEVFDNEILDILR”, “failed”.
As to “MSNELLMSSAEYPAHQENKRFRGASSQNITVILPACNNEVSIGSLILLTRLYADNVIVVDDGSTDRTVEISRKAGAHVIVNEACKGKVGSLRTGFTAAADLGADIIVTMDPDGQHNPAEIPRIVAPIIDGTAEMVNGSRYLNYPGKNSSVYSRTGQTMQDISANMNFNLKITDTQSGFRAYAASTKSIFRFSGKKTAIENEMLADAGRSGIRIAEVEIGACTSVGASIRDPVKYTLGALRTMAEDIEANKPLYFYSVPGFALATCGFFMGFKFMADYFFGIASLNFGHTFLMVFLALAGAYMTLRGIIAHSMAGAARQTDST”, the protein production result was “failed”.
As for “MSNESETDVDEETADEEEQAEGLQKGDVVKLAYTARTVDGGQLVDTTDEEVAEDDGIDTEQQEFGPRTIVLGENHIFPDVEQDIYGKEVGDEGDVTVAAADAFGEYDEEEVRTVSKDKIPEDDRYPGAHVDLEGEHGHVETIIGGRARVDFNHPLAGEDVEYDYEVLEEVTDREEKAQGIIQMMLDMELDVWFETDTVEEEQLVESEDEDEDEESEPEYETVEVEKETLYIEATPQLTMNQQWMMGKQQIAQQLTQLLDIDRIIVQEEIGGGGMGMPGMMGGMGGAGGADIEDALEDADVDAEEIVEEIEGAEE”, the protein production result was “failed”.
Under “MSNFFKQTLASLLGTLLGLFLFAGAGTTGLLLLLFAAASSSNTGPVVKDKSVVVFDLSMNITDREPSAGEELQNRFSGVTQERMTLRNVIDSLEKAQRDKRIVAIYLDGSRGGNNLGFASLKEIRKALEEFRKSGKKVIAYGVAWDEKEYYLSSVADTIALNPLGGLEINGLSSQPMFLAGALQKYGIGVQVVRAGKFKGAVEPFLLDKLSPENREQTQKLLDDVWGEWRTTVGNSRKINPQKLQAIADNQSLLEATEAKTNGLVDQVAYNDQVVADLKKLTGSNKKDNTFTQISLRRYAQVPGQSLGLEKNSKNKIAVVYAEGDIVDGKGDDGQIGGDRFARIFNKIRQDENVKAVVLRINSPGGSATASEVMQREIRLTRESKPVVVSMGDYAASGGYWIATDSNRIFAEPNTITGSIGVFGVLFNGQKLANDNGITWDAVKTARYADSQTVARPKSPQEIAIYQRSVDRIYNMFVNKVAQGRKLPTQKVAEIAQGRVWSGVTAKQIGLVDEIGGLNAAIEYAAKAAKLGKDWQLREYPRESSFEERFFGGVVEEISTTLGIKKLDVKPNDPLTVQIQKIQQEISILQTMNDPQGVYARLPINLKIE” stands “failed”; under “MSNIIVLSGSPRKGGNTDLLVDAFVKGAEKSNNVEVVSVAYYKVNPCIGCNSCFDRAGHECFQQDDMQIVYDKLKCADVIVVASPVYFYGVSAQLKAIIDRLHTPMRNDFKVKKLALILVGAAVLPELFDSIKIQYQLVLNFFKLEDAGMVLVRGAKDKGDVRNTDGLDEAYRLGLAME”, “failed”.
On to “MSNKRKLWQIFGPVLCAFILLIILFLIPWQNGEKSDNALFKASVSQSQTVFKGQSIKQAAFEKNYVPFYGSSELSRMDALHPSVLAYKYKRNYRPFLLGGPGSQSLTHFFTMQETVNQLSNKKAVFIISPQWFTKQGQNPAAFGMYFSQLQAVDWILTAKDSVATRYAARRLLDMPAGTASETTKYALMTLASGQKLSKYQTLYLKARRRMLANEDNFFSSIGMTNNIPKIQKEAGKLPGTYAYDNLRQFANEQGQQGTTNNKFGISNGFFDKKLNNKHLKHLKNSQRDFDYTQSPEYADFELVLNELAHEHVNVLFIIPPVNEKWAKYTGLSQTMYQECVAKITKQLTSQGFNNIANLSKDGGKKFFMEDTIHLGWNGWLKVDQYVKPFMEEKNHPVNYKLNSYYFTKAWGNKTNVKMPNVKSKAAVDIKKN”, for which the protein production entry is on record as “failed”.
For the sequence “MSNRIKNIHYGTQRQQLKNLTKKEYQALREMCFLAKNLYNVGTYNVRQHYFNQGEHLNYEANYHVCKENENYKLLNSNIAQQILKEVDSSFRSFFGLIKLAKEGKYDFRGIKSPKYLDKEGFFSIIIGQIRIKEDGILNVPMSPAFKKLYGKVSIKVPQNILEKKIKEIRIIPKHKARFFEIQYCYEIPKSEEVSNQKNALAIDLGLENLCTCVTNLGDSFIIDGKRLKSVNQWANKQNDKIEALKLKKNITAITRKQFKVWNKRNNQVKDYVNKTCFYIIDYCVKNNIGNLIVGYNAKLEKSDNMERKIYRNFIRIPFGEIKGKLEYLCKIKNINFIRQEESYTSKSDFFADDFLPDINVDNVKKYDFKGERITRGQYKSSVGIIINADVNASLNILKKSQVVNLSNLQNNPQILKQPQRVRIS”, the protein production entry is recorded as “failed”.
Regarding “MSNSSMSVVILAAGKGTRMYSDLPKVLHPLAGKPMVQHVIDAAMKLGAQHVHLVYGHGGELLKKTLADPSLNWVLQAEQLGTGHAMQQAAPHFADDEDILMLYGDVPLISVDTLQRLLAAKPEGGIGLLTVKLDNPSGYGRIVRENGDVVGIVEHKDASDAQREINEINTGILVANGRDLKRWLSLLDNNNAQGEFYITDIIALAHADGKKIATVHPTRLSEVEGVNNRLQLSALERVFQTEQAEKLLLAGVMLLDPSRFDLRGELTHGRDITIDTNVIIEGHVILGDRVRIGTGCVLKNCVIGDDSEISPYTVLEDARLDANCTVGPFARLRPGAELAEGAHVGNFVEIKKARLGKGSKAGHLSYLGDAEIGAGVNIGAGTITCNYDGANKFKTIIGDDVFVGSDTQLVAPVTVANGATIGAGTTVTRDVAENELVISRVKQVHIQGWKRPVKKK”, the protein production entry is reported as “not failed”.
With “MSNVLIINAMKEFAHSKGALNLTLTNVAADFLRESGHQVKITTVDQGYDIESEIENYLWADTIIYQMPAWWMGEPWILKKYIDEVFTDGHGRLYQSDGRTRSDATKGYGSGGLIQGKTYMLSVTWNAPREAFTDPEQFFHGVGVDGVYLPFHKANQFLGMKPLPTFMCNDVIKQPDIEGDIARYRQHLAENVNS” the entry was “not failed”.
For “MSNVRVLATDLAFPEGPVVMPDGSVVLVEIRAQQLTRVWPDGRKEVVAKVPGGPNGAALGPDGKMYICNNGGFGWFPSRGTMMPGAPAPHEYIGGSIQRVDLQSGEVETLFDKCGEHPLKGPNDLVFDKHGGLWFTDLGKRRARDMDVGAAYYIKPGMTEITEQVFGTLPLNGIGLSPDEATMYAAETPTGRLWAFDLSGPGEVKPRDVIYRGEKGKPICGLGGYQMFDSLAVEASGNVCVATLVSGCISVIAPDGTLVEQVPTGDRVTTNIAFGGPDLKTAYITLSGKGELIAMDWSRPGLPLNFLNKLEHHHHHH”, the protein production result is listed as “failed”.
In the case of “MSNWPYPRIVAHRGGGKLAPENTLAAIDVGAKYGHKMIEFDAKLSKDGEIFLLHDDNLERTSNGWGVAGELNWQDLLRVDAGSWYSKAFKGEPLPLLSQVAERCREHGMMANIEIKPTTGTGPLTGKMVALAARQLWAGMTPPLLSSFEIDALEAAQQAAPELPRGLLLDEWRDDWRELTARLGCVSIHLNHKLLDKARVMQLKDAGLRILVYTVNKPQHAAELLRWGVDCICTDAIDVIGPNFTAQ”, the protein production entry is reported as “not failed”.
With “MSPAIITLLILVVAIIIFISDRLPMGLVAFMVPMALYFFGVIGVKDIFASIVNENVILIIAMCVLGAAFFKTGLAWQSSKILLKYAKTERSLSVLIFMISGVMSAFVSNSGTVAVLIPIVLGIAGTSQIKPIKLLMPLVFGATIGADISIIGSPGNLIAKNTIETFSKGNLSVPFFEYAKIGIPLMIACALLLFFFGSRLIPDRDGHEQSDVQMDYSHIPEWHKLLTLIVFVLAILGMVATDYVKFLPPIHIIACCAAIVLVLTGVLNQKETFNSFETLTVFMLAFMMPLGAALNSTGAGEMIARAVISVTGNSGVIVIMASLWILTWALTQVMSNTAACTLLCPVGWTIAQSIGADPRAVVIAIFIASSVAVCTPMAIPANSMIIGPGNVKFKDFLKPGLAISFVCFIVSMILLPVFYPFY” the entry was “failed”; with “MSPFLRIGLSNFDCGSCQSCQGEAVNPYCAVLVKEYVESENGQMYIQKKPTMYPPWDSTFDAHINKGRVMQIIVKGKNVDLISETTVELYSLAERCRKNNGKTEIWLELKPQGRMLMNARYFLEMSDTKDMNEFETEGFFALHQRRGAIKQAKVHHVKCHEFTATFFPQPTFCSVCHEFVWGLNKQGYQCRQCNAAIHKKCIDKVIAKCTGSAINSRETMFHKERFKIDMP”, “failed”; with “MSPIARAALWMTGAIASFSAMAVAGRELSAVHDTFEIMMYRSFVGVLVVSLILSVTGTWHQVSTRALGLHALRNAVHFTGQNLWFFAVTVIPLAQVFALEFTQPLWVILLSPLLLGERMTRVRVAAAVIGFVGILIVARPGASSLNIGILTAALSAIFFAMTTISTKKLTRLASIGCIMFWLTVMQAVLGLVASGHDGQIALPTLGTAPYLVLVGLAGLLAHYCITNALAIAPATVVVPIDFARLPTIAVVGMLLYGEALDIWVLVGAAVIFAGNYLNILAETRNTAR”, “failed”.
